Assay [1] addresses sfGFP with a cysteine substitution at position D117 (D117C synthetic antigen) (Aequorea victoria (Water jellyfish) …, UniProt P42212 2-238 = GFP). Put plainly: cell-based or functional assay.
The target in assay [2] is sfGFP linked to the PlGF123-144 peptide sequence with a flexible glycine-serine linker at the C-terminus …. Put plainly: cell-based or functional assay.

B1: GFP specific ProCAR construct (GFP28z): sfGFP-binding nanobody, IgG4 hinge, CD28 transmembrane and intracellular domains, CD3zeta signaling domain (receptor)
chain: QVQLQESGGGSVQAGGSLKLSCAASGGAYRNACMGWFRQAPGKEREGVAIINSVDTTYYADPVKGRFTISRDNAKSTVYLLMNSLKPEDTAIYYCAQVARVVCPGDKLGASGYNYWGQGTQVTVSSGSESKYGPPCPCPAFWVLVVVGGVLACYSLLVTVAFIIFWVRSKRSRLLHSDYMNMTPRRPGPTRKHYQPYAPPRDFAAYRSLRVKFSRSADAPAYQQGQNQLYNELNLGRREEYDVLDKRRGRDPEMGGKPRRKNPQEGLYNELQKDKMAEAYSEIGMKGERRRGKGHDGLYQGLSTATKDTYDALHMQALPPR
As for B1, the “SA-driven fold expansion of GFP28z” value in assay [1] was determined as 8 fold. Moreover, in assay [2], the “SA-driven fold expansion of GFP28z” value worked out at 8 fold and the “viability of GFP28z T cells after 24 hr with 500 ng/mL PlGF-SA, relative to untreated controls” value is ~72 % of untreated controls.

For the origin of these results see patent US20240016847A1 (TRUSTEES OF COLUMBIA UNIVERSITY IN THE CITY OF NEW YORK, published 2024).
